From patent US20030008291A1

Experiments:
UvrA [1] = assay: SPR (BIAcore), His-tagged β domain immobilised on Ni-NTA sensor chip, UvrA in solution, with ATP
UvrA [2] = assay: SPR (BIAcore), His-tagged β domain immobilised on Ni-NTA sensor chip, UvrA in solution, without ATP
[3] = biological target: TRCF-β (β domain of Thermus thermophilus HB8 transcription-repair coupling factor, His-tagged) (Thermus thermophilus HB8); assay: SPR (BIAcore), His-tagged β domain immobilised on Ni-NTA sensor chip, UvrA injected, with ATP (+ ATP)
[4] = biological target: TRCF-β (β domain of Thermus thermophilus HB8 transcription-repair coupling factor, His-tagged) (Thermus thermophilus HB8); assay: SPR (BIAcore), His-tagged β domain immobilised on Ni-NTA sensor chip, UvrA injected, without ATP (- ATP)

Chain of UvrA (enzyme) (Q56242 whole entry): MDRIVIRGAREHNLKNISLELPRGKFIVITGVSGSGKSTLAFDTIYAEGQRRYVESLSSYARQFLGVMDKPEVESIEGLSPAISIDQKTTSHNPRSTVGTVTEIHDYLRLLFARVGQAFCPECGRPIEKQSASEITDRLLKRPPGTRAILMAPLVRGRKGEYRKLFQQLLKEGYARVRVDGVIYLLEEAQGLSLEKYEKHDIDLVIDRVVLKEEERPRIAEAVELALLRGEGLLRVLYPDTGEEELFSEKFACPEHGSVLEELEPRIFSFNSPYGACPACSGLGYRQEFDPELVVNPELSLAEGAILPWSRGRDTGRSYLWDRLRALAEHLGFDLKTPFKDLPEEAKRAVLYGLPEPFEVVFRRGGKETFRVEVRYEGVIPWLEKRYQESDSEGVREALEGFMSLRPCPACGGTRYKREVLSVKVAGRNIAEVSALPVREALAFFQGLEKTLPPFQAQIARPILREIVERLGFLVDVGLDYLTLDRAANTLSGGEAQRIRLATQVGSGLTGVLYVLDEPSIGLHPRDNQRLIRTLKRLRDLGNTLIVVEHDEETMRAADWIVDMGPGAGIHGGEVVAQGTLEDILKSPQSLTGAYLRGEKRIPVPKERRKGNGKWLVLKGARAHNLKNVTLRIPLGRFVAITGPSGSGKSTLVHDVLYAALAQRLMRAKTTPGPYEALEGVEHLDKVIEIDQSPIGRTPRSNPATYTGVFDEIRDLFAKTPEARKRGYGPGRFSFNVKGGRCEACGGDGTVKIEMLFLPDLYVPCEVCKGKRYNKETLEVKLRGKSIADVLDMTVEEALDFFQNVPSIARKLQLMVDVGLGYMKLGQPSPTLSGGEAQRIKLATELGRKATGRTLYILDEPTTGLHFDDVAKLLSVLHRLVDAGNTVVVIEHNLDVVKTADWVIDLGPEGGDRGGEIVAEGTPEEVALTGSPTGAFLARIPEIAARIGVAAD
Chain of UvrA (Q56242 whole entry): as above

| Kd (UvrA [1]) [nM] | Kd (UvrA [2]) [nM] | koff [3] [s⁻¹] | kon [3] [M⁻¹ s⁻¹] | koff [4] [s⁻¹] | kon [4] [M⁻¹ s⁻¹] | Substance |
| --- | --- | --- | --- | --- | --- | --- |
| 500 | 1300 | – | – | – | – | TRCF-β (β domain of Thermus thermophilus HB8 transcription-repair coupling factor, His-tagged) (enzyme) |
| – | – | 0.07 | 150000 | 0.13 | 100000 | UvrA (enzyme) |
